Biological target: T1, IL17RA-SEFIR (SEFIR domain-containing fragment of human IL17RA, residues 351 to 616) (human, UniProt Q96F46 351-616)
T1 sequence (looked up): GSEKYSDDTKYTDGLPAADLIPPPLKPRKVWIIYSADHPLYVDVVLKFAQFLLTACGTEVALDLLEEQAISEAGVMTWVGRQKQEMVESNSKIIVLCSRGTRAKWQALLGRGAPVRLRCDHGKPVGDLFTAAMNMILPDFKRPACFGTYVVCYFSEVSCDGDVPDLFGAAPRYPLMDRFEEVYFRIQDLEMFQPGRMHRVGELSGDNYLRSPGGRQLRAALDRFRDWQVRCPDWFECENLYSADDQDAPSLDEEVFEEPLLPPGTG
Assay: SPR

binding result: binds
Binder: LDEDEHGLHTKY [CC′ loop peptide of the Act1 SEFIR domain]

— paper PMC3282585 (Science Signaling, 2011)
